Measurements: US20130288983A1 (Amgen, published 2013)

T1: Activin A (Homo sapiens (Human), UniProt P08476 311-426)
T1 sequence: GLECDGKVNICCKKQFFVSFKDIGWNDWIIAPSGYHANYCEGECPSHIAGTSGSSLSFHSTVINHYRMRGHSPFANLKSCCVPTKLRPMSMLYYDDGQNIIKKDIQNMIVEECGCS


Each binder was assayed against T1, Activin A (assay: Biacore SPR grade, COS transient conditioned media, 20 nM activin A).
Protocol: Qualitative BIAcore® Assay. E28 and R40 were substituted respectively with other natural amino acids in fusions with IgG1 Fc as described above. Each vActRIIB-IgG1Fc sample from conditioned media was captured on goat anti-human IgG1 Fc antibody (Jackson Immuno Research, cat#109-005-098, lot 63550) coated CMS surface. 20 nM of Activin A was injected over captured sample surfaces using BIACore2000 (BIACore Life Sciences, Piscataway, N.J.). The resulting sensorgrams were normalized to the captured RL (500 RU) of vActRIIB-IgG1Fc variants. The normalized binding response (RU) for some variants are shown in Table 2, and is further described below. Relative binding affinity for activin was also determined by Biacore measurements using conditioned media obtained from mammalian cell expression. Activin A (20 nM) was used to capture soluble receptor polypeptide in the conditioned media and measured SPR signals were normalized. Normalized SPR of +++++: >60, ++++:40-60, +++:20-40, ++:10-20, +: 5-10, −: <5.

| Binder | normalized SPR signal |
| --- | --- |
| ActRIIB-IgG1 Fc E28F, linker GGGGS (Fc fusion, Tested from conditioned media) SGRGEAETRFCIYYNANWELERTNQSGLERCEGEQDKRLHCYASWRNSSGTIELVKKGCWLDDFNCYDRQECVATEENPQVYFCCCEGNFCNERFTHLPEAGGPEVTYEPPPTAPTGGGGSAPELLGGPSVFLFPPKPKDILMISRTPEVTCVVVDVSHEDPEVKFNWYVGGVEVHNAKTKPREEQYNSTYRVVSVLTVLHQDWLNGKEYKCKVSNKALPAPIEKTISKAKGQPREPQVYTLPPSRDELTKNQVSLTCLVKGFYPSDIAVEWESNGQPENNYKTTPPVLDSDGSFFLYSKLTVDKSRWQQGNVFSCSVMHEALHNHYTQKSLSLSPGK | 20 to 40 ru |
| ActRIIB-IgG1 Fc E28H, linker GGGGS (Fc fusion, Tested from conditioned media) SGRGEAETRHCIYYNANWELERTNQSGLERCEGEQDKRLHCYASWRNSSGTIELVKKGCWLDDFNCYDRQECVATEENPQVYFCCCEGNFCNERFTHLPEAGGPEVTYEPPPTAPTGGGGSAPELLGGPSVFLFPPKPKDILMISRTPEVTCVVVDVSHEDPEVKFNWYVGGVEVHNAKTKPREEQYNSTYRVVSVLTVLHQDWLNGKEYKCKVSNKALPAPIEKTISKAKGQPREPQVYTLPPSRDELTKNQVSLTCLVKGFYPSDIAVEWESNGQPENNYKTTPPVLDSDGSFFLYSKLTVDKSRWQQGNVFSCSVMHEALHNHYTQKSLSLSPGK | 5 to 10 ru |
| ActRIIB-IgG1 Fc E28I, linker GGGGS (Fc fusion, Tested from conditioned media) SGRGEAETRICIYYNANWELERTNQSGLERCEGEQDKRLHCYASWRNSSGTIELVKKGCWLDDFNCYDRQECVATEENPQVYFCCCEGNFCNERFTHLPEAGGPEVTYEPPPTAPTGGGGSAPELLGGPSVFLFPPKPKDILMISRTPEVTCVVVDVSHEDPEVKFNWYVGGVEVHNAKTKPREEQYNSTYRVVSVLTVLHQDWLNGKEYKCKVSNKALPAPIEKTISKAKGQPREPQVYTLPPSRDELTKNQVSLTCLVKGFYPSDIAVEWESNGQPENNYKTTPPVLDSDGSFFLYSKLTVDKSRWQQGNVFSCSVMHEALHNHYTQKSLSLSPGK | 10 to 20 ru |

Other lines, results leading:

| normalized SPR signal | Binder |
| --- | --- |
| 10 to 20 ru | ActRIIB-IgG1 Fc E28M, linker GGGGS (Fc fusion, Tested from conditioned media) SGRGEAETRMCIYYNANWELERTNQSGLERCEGEQDKRLHCYASWRNSSGTIELVKKGCWLDDFNCYDRQECVATEENPQVYFCCCEGNFCNERFTHLPEAGGPEVTYEPPPTAPTGGGGSAPELLGGPSVFLFPPKPKDILMISRTPEVTCVVVDVSHEDPEVKFNWYVGGVEVHNAKTKPREEQYNSTYRVVSVLTVLHQDWLNGKEYKCKVSNKALPAPIEKTISKAKGQPREPQVYTLPPSRDELTKNQVSLTCLVKGFYPSDIAVEWESNGQPENNYKTTPPVLDSDGSFFLYSKLTVDKSRWQQGNVFSCSVMHEALHNHYTQKSLSLSPGK |
| 5 to 10 ru | ActRIIB-IgG1 Fc E28K, linker GGGGS (Fc fusion, Tested from conditioned media) SGRGEAETRKCIYYNANWELERTNQSGLERCEGEQDKRLHCYASWRNSSGTIELVKKGCWLDDFNCYDRQECVATEENPQVYFCCCEGNFCNERFTHLPEAGGPEVTYEPPPTAPTGGGGSAPELLGGPSVFLFPPKPKDILMISRTPEVTCVVVDVSHEDPEVKFNWYVGGVEVHNAKTKPREEQYNSTYRVVSVLTVLHQDWLNGKEYKCKVSNKALPAPIEKTISKAKGQPREPQVYTLPPSRDELTKNQVSLTCLVKGFYPSDIAVEWESNGQPENNYKTTPPVLDSDGSFFLYSKLTVDKSRWQQGNVFSCSVMHEALHNHYTQKSLSLSPGK |
| 5 to 10 ru | ActRIIB-IgG1 Fc E28L, linker GGGGS (Fc fusion, Tested from conditioned media) SGRGEAETRLCIYYNANWELERTNQSGLERCEGEQDKRLHCYASWRNSSGTIELVKKGCWLDDFNCYDRQECVATEENPQVYFCCCEGNFCNERFTHLPEAGGPEVTYEPPPTAPTGGGGSAPELLGGPSVFLFPPKPKDILMISRTPEVTCVVVDVSHEDPEVKFNWYVGGVEVHNAKTKPREEQYNSTYRVVSVLTVLHQDWLNGKEYKCKVSNKALPAPIEKTISKAKGQPREPQVYTLPPSRDELTKNQVSLTCLVKGFYPSDIAVEWESNGQPENNYKTTPPVLDSDGSFFLYSKLTVDKSRWQQGNVFSCSVMHEALHNHYTQKSLSLSPGK |
